The source of these data is patent US20080286803A1 (NEDERLANDSE ORGANISATIE VOOR TOEGEPAST …, published 2008).

This test deals with wild-type pro-urokinase (natural activation site Pro-Arg-Phe-Lys-Ile-Ile-Gly-Gly) (human, UniProt P00749 21-431). Briefly: cell-based or functional assay.

B1: purified recombinant MASP-2 (active form) (enzyme, UniProt O00187 16-686, looked up)
chain: TPLGPKWPEPVFGRLASPGFPGEYANDQERRWTLTAPPGYRLRLYFTHFDLELSHLCEYDFVKLSSGAKVLATLCGQESTDTERAPGKDTFYSLGSSLDITFRSDYSNEKPFTGFEAFYAAEDIDECQVAPGEAPTCDHHCHNHLGGFYCSCRAGYVLHRNKRTCSALCSGQVFTQRSGELSSPEYPRPYPKLSSCTYSISLEEGFSVILDFVESFDVETHPETLCPYDFLKIQTDREEHGPFCGKTLPHRIETKSNTVTITFVTDESGDHTGWKIHYTSTAQPCPYPMAPPNGHVSPVQAKYILKDSFSIFCETGYELLQGHLPLKSFTAVCQKDGSWDRPMPACSIVDCGPPDDLPSGRVEYITGPGVTTYKAVIQYSCEETFYTMKVNDGKYVCEADGFWTSSKGEKSLPVCEPVCGLSARTTGGRIYGGQKAKPGDFPWQVLILGGTTAAGALLYDNWVLTAAHAVYEQKHDASALDIRMGTLKRLSPHYTQAWSEAVFIHEGYTHDAGFDNDIALIKLNNKVVINSNITPICLPRKEAESFMRTDDIGTASGWGLTQRGFLARNLMYVDIPIVDHQKCTAAYEKPPYPRGSVTANMLCAGLESGGKDSCRGDSGGALVFLDSETERWFVGGIVSWGSMNCGEAGQYGVYTKVINYIPWIENIISDF
B1: the “absorbance change at 405 nm (activation of pro-urokinase, read with pyro-Glu-Gly-Arg-pNA)” value was roughly 2 fold.
